Experimental data from the DeepSol protein solubility set.

Assay: soluble on expression in E. coli; label from the status in PepcDB or PDB records

Row | Sequence | soluble on expression in E. coli
1 | MDVRSAPSNHATAVPTAQPSAPSIKSTLSKLFRAQCSDPVPLSSSSSTERIAPPRVTANYSAVVDISKTASHSKTNADTAEKNSFSWLKNKLSTVSENQQKKQAIQNFIAQVSQQYNVEEDVAKLAVAASGAYRQLRFEETQQQRVHACLQDTEALTAMIDLATRKPLTYKMVMGLDSSDCSFDPIARISDHDILTEAEQCQVVRSAFASADKVCVVTSYGIKPLGAPKSDALSPTIASVLQGFASKQHDKDFTGVFFYQKSDAIQNYYTEDKRTNISIKENDWAKAVTLFNAAVERGEIEGPKEGLK | not soluble
2 | MDVSFEFEHYQVRLIKSSDAVTIANYFMRNRHHLAPWEPKRSHAFFTPEGWKQRLLQLVELHKHNLAFYFVVVDKNEHKIIGTVSYSNITRFPFHAGHVGYSLDSEYQGKGIMRRAVNVTIDWMFKAQNLHRIMAAYIPRNEKSAKVLAALGFVKEGEAKKYLYINGAWEDHILTSKINDDWKP | soluble
3 | MDVSLPCIKIQVQTRYIEEQSNPEYQRFVFAYLITIKNLSSQTVQLMSRRWLITDADGKQTVVEGDGVVGEQPRIKANDEYTYSSGTALDTPVGVMQGQYLMIDEQGESFTVEIEPFRLAVPHVLNLEHHHHHH | soluble
4 | MDWMPLGDYETFRHWSGKPRAWGPQESGWRAWFGGKIVDGLCEVLDEHLAVRRRGVPAAIGCVPWLSSEAVAETLLALSVFCVVIDKGTSFPSRLRNPDKGFPNVALLRLRDMAPSEHGSRCSSARGRLCLSMS | not soluble
5 | MDYKFPKDFMFGTSTASYQIEGGWNEDGKGENIWDRLVHTSPEVIKDGTNGDIACDSYHKYKEDVAIIKDLNLKFYRFSISWARIAPSGVMNSLEPKGIAYYNNLINELIKNDIIPLVTMYHWDLPQYLQDLGGWVNPIMSDYFKEYARVLFTYFGDRVKWWITFNEPIAVCKGYSIKAYAPNLNLKTTGHYLAGHTQLIAHGKAYRLYEEMFKPTQNGKISISISGVFFMPKNAESDDDIETAERANQFERGWFGHPVYKGDYPPIMKKWVDQKSKEEGLPWSKLPKFTKDEIKLLKGTADFYALNHYSSRLVTFGSDPNPNFNPDASYVTSVDEAWLKPNETPYIIPVPEGLRKLLIWLKNEYGNPQLLITENGYGDDGQLDDFEKISYLKNYLNATLQAMYEDKCNVIGYTVWSLLDNFEWFYGYSIHFGLVKIDFNDPQRTRTKRESYTYFKNVVSTGKP | soluble
6 | MDYKVSRSGEIVEGEVEDSEKIDLPPGFRFHPTDEELITHYLRPKVVNSFFSAIAIGEVDLNKVEPWDLPWKAKLGEKEWYFFCVRDRKYPTGLRTNRATKAGYWKATGKDKEIFKGKSLVGMKKTLVFYKGRAPKGVKTNWVMHEYRLEGKFAIDNLSKTAKNECVISRVFHTRTDGTKEHMSVGLPPLMDSSPYLKSRGQDSLAGTTLGGLLSHVTYFSDQTTDDKSLVADFKTTMFGSGSTNFLPNIGSLLDFDPLFLQNNSSVLKMLLDNEETQFKKNLHNSGSSESELTASSWQGHNSYGSTGPVNLDCVWKF | soluble
7 | MDYLTTNKIAWDARTRVHLTSDFYDVEGFLSGKISLTEIELNELAVAGKSLLHLQCHFGLDTLSWARMGAKVTGVDLSEVAIAEACKLAQQTQLSAEFICSDVYSVVGKVEPQDIVFTSYGAIVWLPDLTLWAQTIAACLKPGGQFYMAEFHPAQQLFDGYSYFNRGEPDIEQEGTYTENASDDQQTLMCWSHSLSEVINALLQAGLELVFFHEFAFSPYNCFEGLEAQADGRYVLIHQGQQVPLVYSISARKPVLEHHHHHH | soluble
8 | MDYLVKALAYDGKVRAYAARTTDMVNEGQRRHGTWPTASAALGRTMTASLMLGAMLKGDDKLTVKIEGGGPIGAIVADANAKGEVRAYVSNPQVHFDLNEQGKLDVRRAVGTNGTLSVVKDLGLREFFTGQVEIVSGELGDDFTYYLVSSEQVPSSVGVGVLVNPDNTILAAGGFIIQLMPGTDDETITKIEQRLSQVEPISKLIQKGLTPEEILEEVLGEKPEILETMPVRFHCPCSKERFETAILGLGKKEIQDMIEEDGQAEAVCHFCNEKYLFTKEELEGLRDQTTR | soluble
9 | MDYQQDEYDEPFRIHLNLDNLTEDEAKARFSLIYDQHAQTMKRRETNDYLRPICIDGTDVSNKLNHIIRKNMDLFPVDKSIFNMRAITMALWYFISRGHAAVVFLPTNLRDFAQKCSDPHELSLLAKLELIVFDESTALNPSSAVLLSKTVATWAQNNDGCIVGSRKKYGLLGQRYSELIDRVTNTLISPAFTPDNELEICDLVRLVLAADEVRRNDENSNCMGYQLLASDQVVIMSKLAKMIGKDSMIDLCNRARELNTSTNPNYRNIFNNQKQSTSMGRVYQSPYHFNDPFLPDYVAPPPPIALESVAKPTRIGHRHSIYRVGEDKSTELENGDNRRKAVYRGALIDALQPMFGLEKATALVNGNPDQNEINDLIELGINQ | not soluble
10 | MDYTKYLAGRANWIKGSALADVMKKASELQKKGVKLISLAAGDPDPELIPRAVLGEIAKEVLEKEPKSVMYTPANGIPELREELAAFLKKYDHLEVSPENIVITIGGTGALDLLGRVLIDPGDVVITENPSYINTLLAFEQLGAKIEGVPVDNDGMRVDLLEEKIKELKAKGQKVKLIYTIPTGQNPMGVTMSMERRKALLEIASKYDLLIIEDTAYNFMRYEGGDIVPLKALDNEGRVIVAGTLSKVLGTGFRIGWIIAEGEILKKVLMQKQPIDFCAPAISQYIALEYLKRGYFEKYHLEGALLGYKEKRDIMLKALENHLPNAEFTKPIAGMFVMFFLPEGADGISFANELMEREGVVVVPGKPFYTDESGKNAIRLNFSRPSKEEIPIGIKKLAKLYKEKFGE | soluble
11 | MEADRKADNGNAGFSLVCHPEERITYRVGNKVICCLDGSRIGIQFETSTAGETYEVYHCVLESKSFLEKMIVLEHTIPFFLPLSDLENDLLFSNAKKFIDNVGDLLQAYVDRKEQVRLIKELFGHQISEIYHSLPYHMIEFSMDDCDCKFVVSLRYGDLLCELPTKVRILVWPMHHLSKKQCTSPGSPAIPVRLPFAEDAFRIQSLPEAYAEIMPNMPNEIRQLFQTSPS | soluble
12 | MEAGFKRKVDYLDRPERSEVLSPEDFLQAMPIGKTASILDLGAGTGFLTIPAAKLVDNTVFALDLDAKMLELIESKAKEAGLANVETLEASMDDIPLEANSVDVVLASLVLHEADSLADVLREVSRVVKTGGYFASLEFDTKGTDLKGPPMEIQISAEKLKEELAGFGFEVVKNWQLDEGMYVSIAVKKLEHHHHHH | not soluble
13 | MEAGGLPLELWRMILAYLHLPDLGRCSLVCRAWYELILSLDSTRWRQLCLGCTECRHPNWPNQPDVEPESWREAFKQHYLASKTWTKNALDLESSICFSLFRRRRERRTLSVGPGREFDSLGSALAMASLYDRIVLFPGVYEEQGEIILKVPVEIVGQGKLGEVALLASIDQHCSTTRLCNLVFTPAWFSPIMYKTTSGHVQFDNCNFENGHIQVHGPGTCQVKFCTFKNTHIFLHNVPLCVLENCEFVGSENNSVTVEGHPSADKNWAYKYLLGLIKSSPTFLPTEDSD | soluble
14 | MEAHNQFLKTFQKERHDMKEAEKDEILLMENSRRFVMFPIKYHEIWAAYKKVEASFWTAEEIELAKDTEDFQKLTDDQKTYIGNLLALSISSDNLVNKYLIENFSAQLQNPEGKSFYGFQIMMENIYSEVYSMMVDAFFKDPKNIPLFKEIANLPEVKHKAAFIERWISNDDSLYAERLVAFAAKEGIFQAGNYASMFWLTDKKIMPGLAMANRNICRDRGAYTDFSCLLFAHLRTKPNPKIIEKIITEAVEIEKEYYSNSLPVEKFGMDLKSIHTYIEFVADGLLQGFGNEKYYNAVNPFEFMEDVATAGKTTFFEKKVSDYQKASDMSKSATPSKEINFDDDF | soluble
15 | MEAKLQVGVLGFGTVGSGVIHILEEHQEKISQVTGYHISVKKVLVRDLEKNRRYETKGFELTTNPSDVLDDPEIAVVVEVMGSITTAREYILQALKAGKHVVTANKDLIALHGDELVAVAQANNCDLFYEASVAGGIPILRTIVNSLAADKIQKVMGIVNGTTNFMLTKMTTEKK | not soluble
16 | MEALADVGVLASWSPLHKQVEVIDYYPDGRPHHVRATVKILGLVDKEVLEYHWGPDWVCWDADQTFQQHGQHIEYTVKPEGVDRARVRFDITVEPAGPIPGFIVKRASEHVLDAAAKGLQKLIAGAGDQGNAKSLEHHHHHH | not soluble
